Experimental findings from publication PMC10485164, “Sequence-specific targeting of Caenorhabditis elegans C-Ala to the D-loop of tRNAAla” are described below.

The test system of data set [1] is Ce-C-Alam (C-Ala of mitochondrial AlaRS) (Caenorhabditis elegans). Nature of the data set: EMSA. Conditions: 5 mM Mg2+; EMSA: 20 mM Hepes pH 7.5, 20 mM KCl, 5 mM MgCl2, 2 mM DTT, 10 min on ice, 0.1 uM ligand; 5% native PAGE in 0.5x TBE at 4 C; protein 0.125-32 uM. In general terms: Mobility shift assays separate free from complexed probe on a gel.
In data set [2] the test system is CeAlaRSm (mitochondrial AlaRS) (Caenorhabditis elegans). Briefly: EMSA. To be noted: 5 mM Mg2+; EMSA: 20 mM Hepes pH 7.5, 20 mM KCl, 5 mM MgCl2, 2 mM DTT, 10 min on ice, 0.1 uM ligand; 5% native PAGE in 0.5x TBE at 4 C; protein 0.125-32 uM.
In data set [3] the test system is CeAlaRSm(ΔC) (Caenorhabditis elegans). Nature of the data set: EMSA. To be noted: 5 mM Mg2+; EMSA: 20 mM Hepes pH 7.5, 20 mM KCl, 5 mM MgCl2, 2 mM DTT, 10 min on ice, 0.1 uM ligand; 5% native PAGE in 0.5x TBE at 4 C; protein 0.125-32 uM.
The target of data set [4] is T1, Ce-C-Alac (C-Ala of cytoplasmic AlaRS) (Caenorhabditis elegans, UniProt O01541 757-968).
T1 sequence: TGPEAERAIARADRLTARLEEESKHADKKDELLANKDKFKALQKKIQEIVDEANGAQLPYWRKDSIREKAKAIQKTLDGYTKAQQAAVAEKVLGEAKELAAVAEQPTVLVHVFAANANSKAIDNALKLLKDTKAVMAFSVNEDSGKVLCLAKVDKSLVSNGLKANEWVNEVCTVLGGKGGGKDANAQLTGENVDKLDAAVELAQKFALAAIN
Briefly: EMSA; 5 mM Mg2+; EMSA: 20 mM Hepes pH 7.5, 20 mM KCl, 5 mM MgCl2, 2 mM DTT, 10 min on ice, 0.1 uM ligand; 5% native PAGE in 0.5x TBE at 4 C; protein 0.125-32 uM. To be noted: protein: recombinant, tags: His6 (C-terminal, pET21b), label: 5'-32P.

In data set [5] the target is T2, Ce-C-Alac helical subdomain (HS) (Caenorhabditis elegans, UniProt O01541 757-858).
T2 sequence: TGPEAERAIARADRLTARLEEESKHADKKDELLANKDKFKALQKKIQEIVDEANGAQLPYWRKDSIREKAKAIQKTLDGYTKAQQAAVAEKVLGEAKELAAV
Described as above. To be noted: protein: recombinant, tags: His6 (C-terminal, pET21b), label: 5'-32P.

Data set [6] has as its target T3, Ce-C-Alac globular subdomain (GS) (Caenorhabditis elegans, UniProt O01541 859-968).
T3 sequence: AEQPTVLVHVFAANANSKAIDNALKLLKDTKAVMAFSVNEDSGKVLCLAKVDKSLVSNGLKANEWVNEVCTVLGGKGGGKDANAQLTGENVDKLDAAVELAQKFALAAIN
Described as above. Conditions: protein: recombinant, tags: His6 (C-terminal, pET21b), label: 5'-32P.

For data set [7], the target named is T1, Ce-C-Alac (C-Ala of cytoplasmic AlaRS). Described as above. To be noted: protein: recombinant; tags: His6 (C-terminal, pET21b); label: 5'-32P; two hairpins.

In data set [1], “GGGGGUAUAGCUCAGUGGUAGAGCGCUCCCUUAGCAUGGGAGAGGGCUGGGGUUCAAUUCCCCAUACCUCCACCA [CetRNAnAla]” returned a binding signal (fold lower affinity than CetRNAmAla) of 7.5.
Broadly, the Kd is the equilibrium constant for the complex coming apart. Regarding “GGGAUUUUAGUUUAAUAAAAAUAUAUGUUUUGCAUACAUAAGAUAAUAAUUCUACCA [CetRNAmAla]”, the dissociation constant Kd in data set [1] was 200 nM; in data set [2], 200 nM; in data set [3], > 32000 nM.
With “GGGAUUUUAGUUUAGUGGUAAAAUAUAUGUUUUGCAUACAUAAGAUAAUAAUUCUACCA [DLnAla mut (CetRNAmAla with D-loop of CetRNAnAla)]”, the Kd is 4000 nM in data set [1], 1000 nM in data set [2] and > 32000 nM in data set [3].

B1: SctRNAnGly (structured_RNA)
RNA: GCGCAAGUGGUUUAGUGGUAAAAUCCAACGUUGCCAUCGUUGGGCCCCCGGUUCGAUUCCGGGCUUGCGCACCA
Consider B1, for which the Kd in data set [4] (tRNA cloverleaf) was 900 nM.

B2: CetRNAmAla (structured_RNA)
RNA: GGGAUUUUAGUUUAAUAAAAAUAUAUGUUUUGCAUACAUAAGAUAAUAAUUCUACCA
B2: the Kd in data set [4] (tRNA) stood at 4500 nM.

B3: DLmAla mut (CetRNAnAla with D-loop of CetRNAmAla) (structured_RNA)
RNA: GGGGGUAUAGCUCAAUAAGAGCGCUCCCUUAGCAUGGGAGAGGGCUGGGGUUCAAUUCCCCAUACCUCCACCA
Regarding B3, in data set [4] (tRNA), the Kd turned out to be 6500 nM.

B4: minihelix (T-arm-acceptor stem of CetRNAnAla) (structured_RNA)
RNA: GGGGGUAUGGGGUUCAAUUCCCCAUACCUCCACCA
As for B4, the Kd in data set [5] (hairpin) came to 11000 ± 100 nM; in data set [6] (hairpin), 9000 ± 200 nM.

B5: CetRNAnAla (structured_RNA)
RNA: GGGGGUAUAGCUCAGUGGUAGAGCGCUCCCUUAGCAUGGGAGAGGGCUGGGGUUCAAUUCCCCAUACCUCCACCA
For the molecule B5, the Kd amounted to 800 nM in data set [4] (tRNA cloverleaf), 2000 nM in data set [5] (tRNA cloverleaf) and 500 nM in data set [6] (tRNA cloverleaf).

B6: CetRNAnAla A14G15C48 mutant (structured_RNA)
RNA: GGGGGUAUAGCUCGAUGGUAGAGCGCUCCCUUAGCAUGGGAGAGGGUUGGGGUUCAAUUCCCCAUACCUCCACCA
Turning to B6, the Kd in data set [4] (tRNA) amounted to 2000 nM.

B7: CetRNAnAla A14G15 mutant (to GA) (structured_RNA)
RNA: GGGGGUAUAGCUCGAUGGUAGAGCGCUCCCUUAGCAUGGGAGAGGGCUGGGGUUCAAUUCCCCAUACCUCCACCA
For the molecule B7, in data set [4] (tRNA, conformation disrupted), the equilibrium dissociation constant (Kd) worked out at 10000 nM.

B8: CetRNAnAla G18G19C56 mutant (structured_RNA)
RNA: GGGGGUAUAGCUCAGUAAUAGAGCGCUCCCUUAGCAUGGGAGAGGGCUGGGGUUUAAUUCCCCAUACCUCCACCA
Take B8: in data set [4] (tRNA), the Kd came out at 8000 nM.

B9: biloop AG mutant (A14G15 to CC) (structured_RNA)
RNA: GCUCCCUGGUAGAGCGCUCCCUUAGCAUGGGAG
For B9, the binding signal in data set [7] is 4 fold lower affinity than WT biloop.

B10: biloop (D-arm-anticodon arm of CetRNAnAla) (structured_RNA)
RNA: GCUCAGUGGUAGAGCGCUCCCUUAGCAUGGGAG
In the case of B10, the results for the Kd in data set [4] (two hairpins), in data set [5] (two hairpins) and in data set [6] (two hairpins) were 2000 nM, 6000 ± 400 nM and 2000 ± 400 nM, respectively.
